In one data set the test system is CC(=O)SCC[N+](C)(C)C. The experiment in a line: purified protein, by the assay type. Particulars: sodium-phosphate buffer pH 8, 27°C.
For a further data set, the system named is CC(=O)SCCC(C)(C)C. The experiment in a line: purified protein, by the assay type. The note with it: sodium-phosphate buffer pH 8, 27°C.

Drawing on EP0651055A2 (priority 1993, dated 1995), this text covers Km for four substances.

The term Km denotes the substrate concentration at which the rate is half of its maximum.

As to “recombinant HuAChE mutant Glu450Ala (Homo sapiens; E481A)”, the Michaelis constant (Km) was determined as 350 ± 40 µM with CC(=O)SCC[N+](C)(C)C (other: Glu450Ala) and 200 ± 40 µM in the data set on CC(=O)SCCC(C)(C)C (other: Glu450Ala).

In the case of “recombinant HuAChE mutant Tyr337Ala (Homo sapiens; Y368A)”, the results for the Michaelis constant (Km) in the data set with CC(=O)SCC[N+](C)(C)C (other: Tyr337Ala) and in the data set with CC(=O)SCCC(C)(C)C (other: Tyr337Ala) were 100 ± 10 µM and 200 ± 30 µM, respectively.

For “recombinant HuAChE mutant Glu202Gln (Homo sapiens; E233Q)”, the Michaelis constant (Km) in the data set with CC(=O)SCC[N+](C)(C)C (other: Glu202Gln) was 350 ± 40 µM; with CC(=O)SCCC(C)(C)C (other: Glu202Gln), 230 ± 30 µM.

With “recombinant HuAChE mutant Phe338Ala (Homo sapiens; F369A)”, the Michaelis constant (Km) in the data set with CC(=O)SCC[N+](C)(C)C (other: Phe338Ala) was found to be 240 ± 20 µM; with CC(=O)SCCC(C)(C)C (other: Phe338Ala), 300 ± 70 µM.
